The series deals with HSF1 (Homo sapiens, UniProt Q00613 1-529). The series is described as follows: EMSA. Background: A gel shift assay detects complexes by their altered migration in electrophoresis.
Sequence of HSF1 (Q00613 whole entry): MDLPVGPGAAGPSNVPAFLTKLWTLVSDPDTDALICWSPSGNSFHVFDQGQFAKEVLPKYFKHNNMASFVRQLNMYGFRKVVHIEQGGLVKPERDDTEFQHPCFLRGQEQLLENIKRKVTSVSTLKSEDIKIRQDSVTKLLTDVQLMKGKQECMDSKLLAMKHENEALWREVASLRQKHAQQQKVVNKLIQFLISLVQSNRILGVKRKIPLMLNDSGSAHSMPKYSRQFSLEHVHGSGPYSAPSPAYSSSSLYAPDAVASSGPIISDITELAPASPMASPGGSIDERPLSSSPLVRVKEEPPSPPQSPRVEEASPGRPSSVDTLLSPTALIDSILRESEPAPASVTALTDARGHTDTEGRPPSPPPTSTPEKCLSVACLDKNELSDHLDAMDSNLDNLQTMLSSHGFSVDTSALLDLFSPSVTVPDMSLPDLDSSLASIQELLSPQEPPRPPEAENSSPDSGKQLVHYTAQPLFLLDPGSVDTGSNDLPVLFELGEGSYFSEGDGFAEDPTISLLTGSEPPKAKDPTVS

B1: HSE probe (dsDNA)
DNA 1: TCGGCTGGAATATTCCCGACCTGGCAGCCGA
DNA 2: TCGGCTGCCAGGTCGGGAATATTCCAGCCGA
In the case of B1, the binding result is given as “binds”.

Source of the values: article PMC2173303.
